Key:
[1] = tested on: HeLa cells; assay: In vitro screening in HeLa cells, luciferase modified RNA; format: cell-based, human; set-up: key to Protein (Luc; HeLa): the protein production of HeLa is judged by “+,” “+1-” and “−”; the protein production of HeLa is judged by “+,” “+1-” and “−”; the protein production of HeLa is judged by “+,” “+1-” and “−”; conditions: for RLU: HeLa cells, 83 ng luciferase modified RNA, 18 to 22 hours
Protocol: The day before transfection, 20,000 HeLa cells (ATCC no. CCL-2; Manassas, Va.) were harvested by treatment with Trypsin-EDTA solution (LifeTechnologies, Grand Island, N.Y.) and seeded in a total volume of 100 ul EMEM medium (supplemented with 10% FCS and 1× Glutamax) per well in a 96-well cell culture plate (Corning, Manassas, Va.). The cells were grown at […] in 5% CO2 atmosphere overnight. […] Lipofectamine 2000 (LifeTechnologies, Grand Island, N.Y.) was used as transfection reagent and 0.2 ul were diluted in 10 ul final volume of OPTI-MEM. After 5 minutes of incubation at room temperature, both solutions were combined and incubated an additional 15 minute at room temperature. Then the 20 ul combined solution was added to the 100 ul cell culture medium containing the HeLa cells and incubated at room temperature.
After 18 to 22 hours of incubation cells expressing luciferase were lysed with 100 ul of Passive Lysis Buffer (Promega, Madison, Wis.) according to manufacturer instructions. Aliquots of the lysates were transferred to white opaque polystyrene 96-well plates (Corning, Manassas, Va.) and combined with 100 ul complete luciferase assay solution (Promega, Madison, Wis.). The lysate volumes were adjusted or diluted until no more than 2 mio relative light units (RLU) per well were detected for the strongest signal producing samples and the RLUs for each chemistry tested are shown in Table 19. The plate reader was a BioTek Synergy H1 (BioTek, Winooski, Vt.). The background signal of the plates without reagent was about 200 relative light units per well.

[2] = tested on: Rabbit Reticulocyte Lysate; assay: In vitro screening in rabbit reticulocyte lysates, luciferase mRNA translation; format: biochemical; conditions: 250 ng luciferase mRNA, 60 minutes, 30° C.
Protocol: The diluted luciferase was added to 40 ul of freshly prepared Rabbit Reticulocyte Lysate and the in vitro translation reaction was done in a standard 1.5 mL polypropylene reaction tube (Thermo Fisher Scientific, Waltham, Mass.) at 30° C. in a dry heating block. The translation assay was done with the Rabbit Reticulocyte Lysate (nuclease-treated) kit (Promega, Madison, Wis.) according to the manufacturer's instructions. The reaction buffer was supplemented with a one-to-one blend of provided amino acid stock solutions devoid of either Leucine or Methionine resulting in a reaction mix containing sufficient amounts of both amino acids to allow effective in vitro translation.
After 60 minutes of incubation, the reaction was stopped by placing the reaction tubes on ice. Aliquots of the in vitro translation reaction containing luciferase modified RNA were transferred to white opaque polystyrene 96-well plates (Corning, Manassas, Va.) and combined with 100 ul complete luciferase assay solution (Promega, Madison, Wis.). The volumes of the in vitro translation reactions were adjusted or diluted until no more than 2 mio relative light units (RLUs) per well were detected for the strongest signal producing samples and the RLUs for each chemistry tested are shown in Table 20. The plate reader was a BioTek Synergy H1 (BioTek, Winooski, Vt.). The background signal of the plates without reagent was about 200 relative light units per well.

[3] = tested on: peripheral blood mononuclear cells (PBMC); assay: In vitro screening in PBMC: G-CSF protein expression by ELISA; format: cell-based, human; conditions: Table 30, non-naturally occurring chemistries; G-CSF modified mRNA in PBMC; background about 110 pg/ml
From the text: (§1) The supernatant was harvested and stored frozen until analyzed by ELISA to determine the G-CSF protein expression, and the induction of the cytokines interferon-alpha (IFN-α) and tumor necrosis factor alpha (TNF-α).

[4] = tested on: interferon-alpha (IFN-α); assay: In vitro screening in PBMC: interferon-alpha induction by ELISA; format: cell-based, human
From the text: as §1

[5] = tested on: HeLa cells; assay: G-CSF modified mRNA transfected in HeLa cells, G-CSF ELISA; format: cell-based, human; set-up: key to Protein (G-CSF; HeLa): the protein production of HeLa is judged by “+,” “+1-” and “−”; the protein production of HeLa is judged by “+,” “+1-” and “−”; the protein production of HeLa is judged by “+,” “+1-” and “−”
Protocol: (§2) To assess the activity of all our different chemical modifications in the context of a second open reading frame, we replicated experiments previously conducted using luciferase mRNA, with human G-CSF mRNA. […] The mutant T7 polymerase was obtained commercially (Durascribe® T7 Transcription kit (Cat. No. DS010925) (Epicentre®, Madison, Wis.).
(§3) The modified RNA in Tables 27 and 28 were transfected in vitro in HeLa cells or added to rabbit reticulysates (250 ng of modified mRNA) as indicated. […] In Table 27, “NT” means not tested.

[6] = tested on: rabbit reticulysates; assay: G-CSF modified mRNA in rabbit reticulysates, G-CSF ELISA; format: biochemical; conditions: 250 ng of modified mRNA
Protocol: as §2, §3

[7] = tested on: IFN-alpha; assay: In vitro PBMC study, percent modification: IFN-alpha expression by ELISA; format: cell-based, human; conditions: for Average IFN-a / G-CSF/IFN-alpha (PC ratio): PBMC; for Average IFN-a: average of three donors; for G-CSF/IFN-alpha (PC ratio): protein/cytokine ratio from averages
Protocol: (§4) The supernatant was harvested and run by ELISA 22 hours after transfection to determine the protein expression.

[8] = tested on: peripheral blood mononuclear cells (PBMC); assay: In vitro PBMC study, percent modification: G-CSF expression by ELISA; format: cell-based, human; conditions: for G-CSF Expression: 22 hours after transfection; for Average G-CSF: PBMC, average of three donors
Protocol: 480 ng of G-CSF mRNA modified with 5-methylcytosine (5mC) and pseudouridine (pseudoU) or unmodified G-CSF mRNA was transfected with 0.4 uL of Lipofectamine 2000 into peripheral blood mononuclear cells (PBMC) from three normal blood donors (D1, D2, and D3). […] The supernatant was harvested and run by ELISA 22 hours after transfection to determine the protein expression. The expression of IFN-alpha and TNF-alpha may be a secondary effect from the transfection of the G-CSF mRNA.

[9] = tested on: TNF-alpha; assay: In vitro PBMC study, percent modification: TNF-alpha expression by ELISA; format: cell-based, human; conditions: for Average TNF-a / G-CSF/TNF-alpha (PC ratio): PBMC; for Average TNF-a: average of three donors; for G-CSF/TNF-alpha (PC ratio): protein/cytokine ratio from averages
Protocol: as §4

[10] = Table 30, non-naturally occurring chemistries, luciferase modified mRNA in HeLa, ** = second result, IVT with mutant T7 polymerase
[11] = Table 30, non-naturally occurring chemistries, IFN-alpha from G-CSF modified mRNA in PBMC, background about 70 pg/ml
[12] = Table 30, non-naturally occurring chemistries, G-CSF modified mRNA in HeLa
[13] = PBMC donor D1, 22 hours after transfection
[14] = PBMC donor D2, 22 hours after transfection
[15] = PBMC donor D3, 22 hours after transfection

2′-F-adenosine
Protein (Luc; HeLa) [1, 10]: −**

5 (2 carbovinyl) uridine: Luciferase mRNA (SEQ ID NO: 409) modified with 5 (2 carbovinyl) uridine
RLU [2]: 225 RLU | RLU [1]: 531 RLU

5 (3-1E propenyl Amino) uridine: Luciferase mRNA (SEQ ID NO: 409) modified with 5 (3-1E propenyl Amino) uridine
RLU [2]: 211 RLU | RLU [1]: 446 RLU

5-Br-Uridine [Compound 5-Br-Uridine]
Protein (G-CSF; PBMC) [3]: + (“+” means greater than 300 pg/ml G-CSF) | Cytokines (G-CSF; PBMC) [4, 11]: + (“+” means greater than 100 pg/ml IFN-alpha) | Protein (G-CSF; HeLa) [5, 12]: + | Protein (Luc; HeLa) [1, 10]: +

5-methylcytidine (m5c): Luciferase mRNA (SEQ ID NO: 409) modified with 5-methylcytidine
RLU [2]: 152,989 RLU | RLU [1]: 138,428 RLU

COC(=O)C=Cc1cn([C@@H]2O[C@H](CO)[C@@H](O)[C@H]2O)c(=O)[nH]c1=O [5-(2-carbomethoxyvinyl) Uridine]
Cytokines (G-CSF; PBMC) [4, 11]: − (“−” means less than 100 pg/ml) | Protein (G-CSF; HeLa) [5, 12]: − | Protein (Luc; HeLa) [1, 10]: −

Luciferase control: luciferase control mRNA (SEQ ID NO: 409) fully modified with 5-methylcytosine and N1-methylpseudouridine [reference compound]
G-CSF protein (pg/ml) Rabbit reticulysates cells [6]: 0 pg/mL

N4-acetylcytidine (ac4c): Luciferase mRNA (SEQ ID NO: 409) modified with N4-acetylcytidine
RLU [2]: 60,879 RLU | RLU [1]: 235,412 RLU

N6-methyladenosine (m6a): Luciferase mRNA (SEQ ID NO: 409) modified with N6-methyladenosine
RLU [2]: 398 RLU | RLU [1]: 534 RLU

N^6-methyladenosine (m^6A)
Cytokines (G-CSF; PBMC) ([4]; summary grade, IFN-alpha, G-CSF mRNA in PBMC): ++++ (“++++” means greater than 1,000 pg/ml interferon-alpha (IFN-alpha)) | Protein (G-CSF; HeLa) ([5]; summary grade, G-CSF mRNA in HeLa): − | Protein (Luc; HeLa) ([1]; summary grade, luciferase mRNA in HeLa): −

B1: 50% modification: G-CSF mRNA (SEQ ID NO: 408) partially modified with 5mC and pseudoU, 50% modification (nucleic acid)
chain: GGGAAAUAAGAGAGAAAAGAAGAGUAAGAAGAAAUAUAAGAGCCACCAUGGCCGGUCCCGCGACCCAAAGCCCCAUGAAACUUAUGGCCCUGCAGUUGCUGCUUUGGCACUCGGCCCUCUGGACAGUCCAAGAAGCGACUCCUCUCGGACCUGCCUCAUCGUUGCCGCAGUCAUUCCUUUUGAAGUGUCUGGAGCAGGUGCGAAAGAUUCAGGGCGAUGGAGCCGCACUCCAAGAGAAGCUCUGCGCGACAUACAAACUUUGCCAUCCCGAGGAGCUCGUACUGCUCGGGCACAGCUUGGGGAUUCCCUGGGCUCCUCUCUCGUCCUGUCCGUCGCAGGCUUUGCAGUUGGCAGGGUGCCUUUCCCAGCUCCACUCCGGUUUGUUCUUGUAUCAGGGACUGCUGCAAGCCCUUGAGGGAAUCUCGCCAGAAUUGGGCCCGACGCUGGACACGUUGCAGCUCGACGUGGCGGAUUUCGCAACAACCAUCUGGCAGCAGAUGGAGGAACUGGGGAUGGCACCCGCGCUGCAGCCCACGCAGGGGGCAAUGCCGGCCUUUGCGUCCGCGUUUCAGCGCAGGGCGGGUGGAGUCCUCGUAGCGAGCCACCUUCAAUCAUUUUUGGAAGUCUCGUACCGGGUGCUGAGACAUCUUGCGCAGCCGUGAAGCGCUGCCUUCUGCGGGGCUUGCCUUCUGGCCAUGCCCUUCUUCUCUCCCUUGCACCUGUACCUCUUGGUCUUUGAAUAAAGCCUGAGUAGGAAG
modifications: 50% 5mC/pseudoU modified; Description of Artificial Sequence: Synthetic Transcript Sequence
IFN-alpha Expression [7, 13]: 478.9 pg/mL | IFN-alpha Expression [7, 14]: 261.1 pg/mL | IFN-alpha Expression [7, 15]: 389.7 pg/mL | Average IFN-a [7]: 376 pg/mL | G-CSF/IFN-alpha (PC ratio) [7]: 0.5 | G-CSF Expression ([8]; PBMC donor D1, 480 ng mRNA): 188.9 pg/mL | G-CSF Expression ([8]; PBMC donor D2, 480 ng mRNA): 187.2 pg/mL | G-CSF Expression ([8]; PBMC donor D3, 480 ng mRNA): 191.9 pg/mL | Average G-CSF [8]: 189 pg/mL | TNF-alpha Expression [9, 13]: 49.6 pg/mL | TNF-alpha Expression [9, 14]: 24.1 pg/mL | TNF-alpha Expression [9, 15]: 10.4 pg/mL | Average TNF-a [9]: 28 pg/mL | G-CSF/TNF-alpha (PC ratio) [9]: 6.8

B2: 25% modification: G-CSF mRNA (SEQ ID NO: 408) partially modified with 5mC and pseudoU, 25% modification (nucleic acid)
chain: B1 chain
modifications: 25% 5mC and pseudoU modification; Description of Artificial Sequence: Synthetic Transcript Sequence
IFN-alpha Expression [7, 13]: 564.3 pg/mL | IFN-alpha Expression [7, 14]: 400.4 pg/mL | IFN-alpha Expression [7, 15]: 670.7 pg/mL | Average IFN-a [7]: 545 pg/mL | G-CSF/IFN-alpha (PC ratio) [7]: 0.2 | G-CSF Expression ([8]; PBMC donor D1, 480 ng mRNA): 139.3 pg/mL | G-CSF Expression ([8]; PBMC donor D2, 480 ng mRNA): 126.9 pg/mL | G-CSF Expression ([8]; PBMC donor D3, 480 ng mRNA): 102.0 pg/mL | Average G-CSF [8]: 122 pg/mL | TNF-alpha Expression [9, 13]: 85.6 pg/mL | TNF-alpha Expression [9, 14]: 26.6 pg/mL | TNF-alpha Expression [9, 15]: 19.8 pg/mL | Average TNF-a [9]: 44 pg/mL | G-CSF/TNF-alpha (PC ratio) [9]: 2.8

B3: 2′Fluoroguanine triphosphate/pseudouridine: G-CSF mRNA (SEQ ID NO: 408) fully modified with the named combination (nucleic acid)
chain: B1 chain
modifications: 2'-fluoroguanine/pseudouridine modified; Description of Artificial Sequence: Synthetic Transcript Sequence
G-CSF protein (pg/ml) HeLa cells ([5]; HeLa cells, combination chemistries, ELISA): 1,136 pg/ml

Reference: patent publication US20180291335A1, “MODIFIED POLYNUCLEOTIDES FOR ALTERING CELL PHENOTYPE” (ModernaTX, Inc., priority 2012, published 2018)
